Test results as given in patent publication US20160369008A1.

Experiments:
[1] = target: recombinant active human PAI-1 (human) (UniProt P05121); assay: cell-based or functional assay
[2] = target: active human PAI-1 in complex with vitronectin (human) (UniProt P05121); assay: ELISA, VTN-PAI-1 complex on the plate
[3] = target: human PAI-1 in complex with tPA (human) (UniProt P05121); assay: ELISA, tPA-PAI-1 complex on the plate
[4] = target: human PAI-1 in complex with uPA (human) (UniProt P05121); assay: ELISA, uPA-PAI-1 complex on the plate
[5] = target: latent human PAI-1 (human) (UniProt P05121); assay: ELISA, latent human PAI-1 on the plate
[6] = target: latent monkey PAI-1 (monkey) (UniProt G7P138); assay: ELISA, latent monkey PAI-1 on the plate
[7] = target: active monkey PAI-1 in complex with vitronectin (monkey); assay: ELISA, VTN-monkey PAI-1 complex on the plate
[8] = target: tPA-monkey PAI-1 complex (monkey); assay: ELISA, tPA-monkey PAI-1 complex on the plate
[9] = target: uPA-monkey PAI-1 complex (monkey) (UniProt P00749); assay: ELISA, uPA-monkey PAI-1 complex on the plate
[10] = target: active PAI-1 in human plasma (human) (UniProt P05121); assay: ELISA: inhibition of the capture of active PAI-1 of human plasma on immobilised uPA (Example 9)
[11] = target: active PAI-1 in monkey plasma (cynomolgus monkey) (UniProt G7P138); assay: ELISA: inhibition of the capture of active PAI-1 of monkey plasma on immobilised uPA (Example 9)

Sequence of MEDI-579 (antibody) (VH): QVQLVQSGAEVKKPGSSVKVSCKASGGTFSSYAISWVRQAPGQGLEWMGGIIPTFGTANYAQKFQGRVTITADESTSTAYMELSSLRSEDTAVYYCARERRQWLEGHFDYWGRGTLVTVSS
Sequence of MEDI-579 (antibody) (VL): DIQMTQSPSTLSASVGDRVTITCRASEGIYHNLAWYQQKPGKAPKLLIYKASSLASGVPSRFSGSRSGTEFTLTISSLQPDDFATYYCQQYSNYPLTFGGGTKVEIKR
Sequence of active monkey PAI-1 in complex with vitronectin (monkey) (P04004 20-478, one chain of several): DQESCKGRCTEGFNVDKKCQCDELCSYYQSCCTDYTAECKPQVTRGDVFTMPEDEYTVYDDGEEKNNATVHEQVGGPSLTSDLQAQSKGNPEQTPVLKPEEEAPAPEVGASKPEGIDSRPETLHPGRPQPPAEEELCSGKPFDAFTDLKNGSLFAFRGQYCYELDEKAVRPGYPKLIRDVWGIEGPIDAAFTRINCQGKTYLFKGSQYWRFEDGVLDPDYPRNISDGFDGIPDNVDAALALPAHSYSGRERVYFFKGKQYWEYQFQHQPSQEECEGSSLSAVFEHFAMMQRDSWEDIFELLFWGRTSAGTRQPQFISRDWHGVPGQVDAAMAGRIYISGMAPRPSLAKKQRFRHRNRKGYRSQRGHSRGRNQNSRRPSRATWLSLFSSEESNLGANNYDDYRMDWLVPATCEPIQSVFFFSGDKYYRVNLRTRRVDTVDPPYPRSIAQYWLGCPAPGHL
Sequence of tPA-monkey PAI-1 complex (monkey) (P00750 36-562, one chain of several): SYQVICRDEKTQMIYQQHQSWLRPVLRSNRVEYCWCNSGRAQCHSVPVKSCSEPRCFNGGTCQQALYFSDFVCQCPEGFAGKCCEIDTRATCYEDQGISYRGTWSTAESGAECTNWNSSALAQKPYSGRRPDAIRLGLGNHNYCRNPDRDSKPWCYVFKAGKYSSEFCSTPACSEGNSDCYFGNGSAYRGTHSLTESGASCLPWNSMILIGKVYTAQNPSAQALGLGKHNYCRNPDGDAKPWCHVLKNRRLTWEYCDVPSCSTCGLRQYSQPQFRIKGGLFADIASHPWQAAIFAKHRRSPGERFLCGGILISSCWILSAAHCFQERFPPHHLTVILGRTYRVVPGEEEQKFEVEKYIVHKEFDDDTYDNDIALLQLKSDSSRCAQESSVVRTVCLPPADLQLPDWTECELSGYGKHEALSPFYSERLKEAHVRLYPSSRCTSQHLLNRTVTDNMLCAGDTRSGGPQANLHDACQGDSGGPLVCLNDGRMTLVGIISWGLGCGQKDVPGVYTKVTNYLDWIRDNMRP

EC50 value, taking the activity of uPA as an indicator (cleavage of a fluorogenic uPA substrate peptide) [1]: 42.1 ng/mL | EC50 [2]: 5.2 ng/mL | EC50 [3]: 3.2 ng/mL | EC50 [4]: 6.1 ng/mL | EC50 [5]: 22.1 ng/mL | EC50 [6]: 48.2 ng/mL | EC50 [7]: 4.1 ng/mL | EC50 [8]: 4.3 ng/mL | EC50 [9]: 5.4 ng/mL | IC50 [10]: 0.73 ng/mL | IC50 [11]: 0.83 ng/mL
Substance: MEDI-579 (antibody)
